The values below come from patent US20160168253A1 (Hoffmann-La Roche, published 2016).

The target of this experiment is T1, Aβ1-40 fibers (human).
T1 construct: Coated on Maxisorp plates for 3 days at 37 C to produce fibrillar Abeta; also called fibrillar Aβ; fibrillar Abeta
As to the kind of experiment: ELISA on plate-coated fibrillar Aβ(1-40), detection with anti-human-IgG-HRP. On the procedure: Binding of fusion polypeptide to fibrillar Aβ was measured by an ELISA assay. Briefly, […] was coated at 7 μg/mL in PBS onto Maxisorp plates for 3 days at 37° C. to produce fibrillar Abeta, then dried for 3 h at RT. The plate was blocked with 1% Crotein C and 0.1% RSA in PBS (blocking buffer) for 1 h at RT, then washed once with wash buffer. Fusion polypeptides or controls were added at concentrations up to 100 nM in blocking buffer and incubated at 4° C. overnight. After 4 wash steps, constructs were detected by addition of anti-human-IgG-HRP (Jackson Immunoresearch) at 1:10,000 dilution in blocking buffer […], followed by 6 washes and incubation in TMB (Sigma). Absorbance was read out at 450 nm after stopping color development with 1 N HCl (see FIG. 1).
On the technique in general: An ELISA detects its analyte on a solid surface through an enzyme-linked reagent.

B1: Mab 31 = Gantenerumab (INN) (antibody, human IgG1, V domains shown)
VH: QVELVESGGGLVQPGGSLRLSCAASGFTFSSYAMSWVRQAPGKGLEWVSAINASGTRTYYADSVKGRFTISRDNSKNTLYLQMNSLRAEDTAVYYCARGKGNTHKPYGYVRYFDVWGQGTLVTVSS
VL: DIVLTQSPATLSLSPGERATLSCRASQSVSSSYLAWYQQKPGQAPRLLIYGASSRATGVPARFSGSGSGTDFTLTISSLEPEDFATYYCLQIYNMPITFGQGTKVEIKR
notes: Human IgG1 with kappa light chain; Id; No. 13; also called mAb31(HEK); naked anti-Aβ monoclonal antibody
Regarding B1, the binding result is reported as “binds”.
